Data taken from patent publication US20090304687A1, “METHODS OF USING CD40 BINDING AGENTS” (Seattle Genetics , Inc., priority 2005, published 2009).
Values joined by “and” are separate entries in the source; they are usually repeats but may differ in a detail not shown here. Identical values can stand only once. “Also recorded” adds a separate entry of the source.

B1: hu sgn-27 (antibody, V domains shown)
VH: EVQLVESGGGLVQPGGSLRLSCAASGYSFTGYYIHWVRQAPGKGLEWVARVIPNQGGTSYNQKFKGRFTLSVDNSKNTAYLQMNSLRAEDTAVYYCAREGIYWWGQGTLVTVS
VL: DIQMTQSPSSLSASVGDRVTITCRSSQSLVHSNGNTFLHWYQQKPGKAPKLLIYTVSNRFSGVPSRFSGSGSGTDFTLTISSLQPEDFATYFCSQTTHVPWTFGQGTKVEIKR

Experiments:
[1] = tested on: Ramos Burkitt's lymphoma cells; assay: Combination therapy with CHOP or prednisone, subcutaneous Ramos Burkitt's lymphoma in SCID mice; assay type: in vivo, C.B.-17 SCID mice
Description: To model localized lymphoma, 5×10^6 Ramos Burkitt's lymphoma cells were implanted subcutaneously into the right flank of C.B.-17 SCID mice (Harlan, Indianapolis, Ind.). Therapy was initiated when the mean tumor size in each group of five animals was 100 mm^3. CHOP was used for a single course, alone or in combination with humanized CD40 antibody (hu sgn-0; SGN-40), using the following dose schedule: cyclophosphamide at 30 mg/kg, i.v. qld x 1; doxorubicin at 2.475 mg/kg, i.v. qld x 1; vincristine at 0.375 mg/kg, i.v. qld x 1; and prednisone at 0.15 mg/kg, p.o. q1d x 5. The CD40 antibody was administered i.p. at 4 mg/kg q4d x 4 when used alone or in combination with prednisone or CHOP. Tumor size was determined using the formula (L×W^2)/2.
To compare the effect of SGN-40 treatment alone or in combination with CHOP or prednisone, SCID mice were subcutaneously implanted with Ramos cells, and dosed with SGN-40 alone or in combination with CHOP as described above. In addition, prednisone steroid was administered alone (0.15 mg/kg, qld x 5 po) or in combination with SGN-40 (4.0 mg/kg, q4d x 4 ip).

[2] = target: CD40 immobilized on microassay plates (UniProt P25942 21-193, limits assumed); assay: serially diluted antibody on CD40 immobilized on microassay plates
Description: Antibodies constructed using these variant light and heavy chain variable domains were analyzed for binding activity. Each antibody was diluted to equivalent concentrations, and then serially diluted. The diluted antibodies were assayed for binding to CD40 immobilized on microassay plates.

[3] = target: CD40 (Homo sapiens, UniProt P25942); assay: Binding of variant antibodies to CD40 immobilized on microassay plates; design: Binding Data 1 / Binding Data 2 / Binding Data 3: unit not given here
Description: Antibodies constructed using these variant light and heavy chain variable domains were analyzed for binding activity. Each antibody was diluted to equivalent concentrations, and then serially diluted. The diluted antibodies were assayed for binding to CD40 immobilized on microassay plates. Affinity binding data for the variant antibodies are shown below in Table 3.

CD40, sequence (P25942 21-277): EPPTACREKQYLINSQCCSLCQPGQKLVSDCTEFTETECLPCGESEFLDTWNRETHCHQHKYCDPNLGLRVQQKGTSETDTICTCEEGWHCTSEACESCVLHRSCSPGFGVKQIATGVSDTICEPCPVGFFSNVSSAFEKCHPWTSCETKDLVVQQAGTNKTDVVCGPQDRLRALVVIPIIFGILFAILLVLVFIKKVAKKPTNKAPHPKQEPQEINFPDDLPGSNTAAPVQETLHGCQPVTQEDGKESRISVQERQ
CD40 immobilized on microassay plates, sequence (P25942 21-193 limits assumed): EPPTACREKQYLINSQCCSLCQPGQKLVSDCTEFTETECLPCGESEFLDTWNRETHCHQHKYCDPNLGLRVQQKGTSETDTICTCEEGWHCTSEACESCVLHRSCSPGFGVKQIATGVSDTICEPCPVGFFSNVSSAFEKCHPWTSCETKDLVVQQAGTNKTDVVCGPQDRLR

Row | Molecule | effect on tumor growth, administered alone ([1]; CHOP single course, prednisone 0.15 mg/kg p.o. q1d x 5) | efficacy in combination with humanized CD40 antibody (SGN-40) ([1]; SGN-40 4 mg/kg i.p. q4d x 4 plus CHOP or prednisone) | Binding Data 2 [2] | Binding Data 1 ([3]; affinity binding data, serially diluted antibody on immobilized CD40) | binding activity compared with the parent murine antibody ([3]; in words)
1 | C[C@]12C=CC(=O)C=C1CC[C@@H]1[C@@H]2C(=O)C[C@@]2(C)[C@H]1CC[C@]2(O)C(=O)CO [prednisone] | little effect | greater efficacy | – | – | –
2 | B1 | – | – | 1.4 | 1.04 and 1.03 and 0.94 and 0.83 | approaching that of the parent murine antibody; also recorded: more closely approaching that of the parent murine antibody
